Data from paper PMC9122904, “Insights into the client protein release mechanism of the ATP-independent chaperone Spy” (Nature Communications, 2022).
Numbering of substitutions follows the chain as printed. In names and notes the source's numbering stands.

Key:
Assay in all cases: BLI; Octet RED96; client biotinylated and loaded on streptavidin sensors; Spy or Spy variant in solution at 0.25, 0.5, 1, 1.5 and 2 μM; 40 mM HEPES, 150 mM NaCl, pH 7.5; Kd calculated as koff/kon
Settings in all cases: both partners purified
[1] = target: T1, Spy_(24-130) (UniProt P77754 47-153)
T1 construct: Spy chaperone, residues 24-130; source: E. coli BL21 (DE3), purified (Ni-NTA, cation exchange, SEC); not shown: His6, N-terminal, cleaved; SUMO, N-terminal, cleaved
T1 sequence (looked up): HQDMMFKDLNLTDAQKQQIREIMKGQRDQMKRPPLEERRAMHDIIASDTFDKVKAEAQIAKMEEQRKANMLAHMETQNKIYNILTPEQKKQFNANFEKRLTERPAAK
Method in brief: (§1)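 Client proteins were biotinylated with EZ-link NHS-biotin at a 1:1 molar ratio, loaded onto streptavidin sensors, and measured by biolayer interferometry on an Octet RED96. The loaded sensors were dipped into 40 mM HEPES, 150 mM NaCl, pH 7.5 holding the analyte protein at 0.25, 0.5, 1, 1.5 or 2 μM, then moved to buffer without it. Fitting the wavelength-shift association and dissociation curves in SigmaPlot 12.0 gave the observed association rate and koff, kon was taken from the observed rate plotted against analyte concentration, and Kd was calculated as koff/kon.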

[2] = target: T2, Spy_(21-124) (UniProt P77754 44-147)
T2 construct: source: E. coli BL21 (DE3), purified (Ni-NTA, cation exchange, SEC); not shown: His6, N-terminal, cleaved; SUMO, N-terminal, cleaved
T2 sequence (looked up): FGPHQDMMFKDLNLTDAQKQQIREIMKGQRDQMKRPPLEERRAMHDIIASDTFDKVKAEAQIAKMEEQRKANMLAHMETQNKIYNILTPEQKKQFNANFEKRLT
Method in brief: as §1

[3] = target: T3, Spy wild type (Spy_(1-138)) (UniProt P77754 24-161)
T3 construct: Spy, ATP-independent periplasmic chaperone; also called WT; wt; source: E. coli BL21 (DE3), purified (Ni-NTA, cation exchange, SEC); not shown: His6, N-terminal, cleaved; SUMO, N-terminal, cleaved
T3 sequence (looked up): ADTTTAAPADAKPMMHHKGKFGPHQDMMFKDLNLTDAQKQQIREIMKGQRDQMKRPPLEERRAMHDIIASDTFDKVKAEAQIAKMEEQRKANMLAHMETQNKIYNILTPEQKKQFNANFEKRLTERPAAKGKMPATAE
Method in brief: as §1

[4] = target: T4, Spy_(1-124) (UniProt P77754 24-147)
T4 construct: source: E. coli BL21 (DE3), purified (Ni-NTA, cation exchange, SEC); not shown: His6, N-terminal, cleaved; SUMO, N-terminal, cleaved
T4 sequence (looked up): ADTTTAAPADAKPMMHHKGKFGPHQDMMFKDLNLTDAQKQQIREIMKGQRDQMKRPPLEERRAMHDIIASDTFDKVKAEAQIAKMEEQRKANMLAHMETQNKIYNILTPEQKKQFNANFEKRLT
Method in brief: as §1

[5] = target: T5, Spy_(29-127) (UniProt P77754 52-150)
T5 construct: Spy chaperone, residues 29-127; source: E. coli BL21 (DE3), purified (Ni-NTA, cation exchange, SEC); not shown: His6, N-terminal, cleaved; SUMO, N-terminal, cleaved
T5 sequence (looked up): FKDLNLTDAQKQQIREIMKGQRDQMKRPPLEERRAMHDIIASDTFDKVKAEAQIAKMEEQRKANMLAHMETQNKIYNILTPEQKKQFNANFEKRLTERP
Method in brief: as §1

[6] = target: T6, Spy_(21-127) (UniProt P77754 44-150)
T6 construct: Spy chaperone, residues 21-127; source: E. coli BL21 (DE3), purified (Ni-NTA, cation exchange, SEC); not shown: His6, N-terminal, cleaved; SUMO, N-terminal, cleaved
T6 sequence (looked up): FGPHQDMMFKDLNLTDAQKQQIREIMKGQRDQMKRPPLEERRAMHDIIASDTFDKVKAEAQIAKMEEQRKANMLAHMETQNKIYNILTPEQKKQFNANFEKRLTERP
Method in brief: as §1

[7] = target: T7, Spy_(29-138) (UniProt P77754 52-161)
T7 construct: source: E. coli BL21 (DE3), purified (Ni-NTA, cation exchange, SEC); not shown: His6, N-terminal, cleaved; SUMO, N-terminal, cleaved
T7 sequence (looked up): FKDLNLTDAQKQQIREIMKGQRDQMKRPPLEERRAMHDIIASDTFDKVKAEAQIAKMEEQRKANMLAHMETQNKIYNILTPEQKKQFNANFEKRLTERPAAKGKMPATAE
Method in brief: as §1

[8] = target: T8, Spy D26A (UniProt P77754 24-161, D26A)
T8 construct: source: E. coli BL21 (DE3), purified (Ni-NTA, cation exchange, SEC); not shown: His6, N-terminal, cleaved; SUMO, N-terminal, cleaved
T8 sequence (looked up): T3 sequence (looked up) with D26A

Kd [1]: 1460 nM
Kd [2]: 1820 nM
Kd [3]: 643 nM
Kd [4]: 930 nM
Kd [5]: 310 nM
Kd [6]: 1980 nM
Kd [7]: 313 nM
kon [8]: 322000 M⁻¹ s⁻¹
B1: Im7 H40W L53A I54A (natural protein)
chain: MELKNSISDYTEAEFVQLLKEIEKENVAATDDVLDVLLEWFVKITEHPDGTDAAYYPSDNRDDSPEGIVKEIKEWRAANGKPGFKQG
modifications: biotin (EZ-link NHS-biotin, 1:1 molar ratio of biotin to protein)
notes: Im7 (colicin E7 immunity protein) with H40W L53A I54A; Spy was made with an N-terminal His6-SUMO tag that was cleaved; also called Im7AAW; partially folded client; source: purified by a similar procedure to Spy
